Results published in patent publication US20210130436A1 (published 2021).
Values belong to the binder of their own block, whether it stands above or below them.

Tests used:
[1] = biological target: T1, human CTLA-4, full-length, on transduced CHO cells (human, UniProt P16410 36-223); experiment: flow cytometry MFI on CHO/huCTLA4 relative to WT CD80 ECD-Fc (R&D)
T1 construct: Full-length surface expression construct transduced into CHO cells by lentivirus; also called huCTLA4

[2] = biological target: T2, human PD-L1, full-length, on transduced CHO cells (human, UniProt Q9NZQ7 19-290); experiment: flow cytometry MFI on CHO/huPD-L1 relative to WT CD80 ECD-Fc (R&D)
T2 construct: Full-length surface expression construct transduced into CHO cells by lentivirus; also called huPD-L1; CD274
T2 sequence (Q9NZQ7 19-290): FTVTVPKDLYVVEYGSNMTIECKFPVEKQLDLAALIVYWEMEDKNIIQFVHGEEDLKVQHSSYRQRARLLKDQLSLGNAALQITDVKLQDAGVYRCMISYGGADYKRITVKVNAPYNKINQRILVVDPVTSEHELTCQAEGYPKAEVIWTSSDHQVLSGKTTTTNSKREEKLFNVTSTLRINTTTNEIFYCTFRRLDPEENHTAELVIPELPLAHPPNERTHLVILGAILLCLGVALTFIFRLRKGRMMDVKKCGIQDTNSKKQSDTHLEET

[3] = biological target: T3, human CD28, endogenous on Jurkat/IL2 reporter cells (human, UniProt P10747 19-220); experiment: flow cytometry MFI on Jurkat (CD28) relative to WT CD80 ECD-Fc (R&D)
T3 construct: Endogenously expressed on Jurkat/IL2 reporter cells

[4] = biological target: T2, human PD-L1, full-length, on transduced …; experiment: flow cytometry; binding to CHO/huPD-L1 compared to binding to Jurkat (CD28)
[5] = biological target: T4, human PD-L1, full length, expressed on transfected HEK293 cells (human, UniProt Q9NZQ7 19-290); experiment: flow cytometry, HEK293 cells transfected with human PD-L1
T4 construct: Full-length surface expression construct from Genscript; also called CD274; B7-H1
T4 sequence (Q9NZQ7 19-290): as above

[6] = biological target: T5, human CD28, full length, expressed on transfected HEK293 cells (human, UniProt P10747 19-220); experiment: flow cytometry, HEK293 cells transfected with human CD28
T5 construct: Full-length surface expression construct from Genscript

[7] = biological target: T6, CD96 (UniProt P40200 22-585, limits assumed); experiment: flow cytometry on CD96-expressing cells
T6 construct: whole, on cells
T6 sequence (looked up): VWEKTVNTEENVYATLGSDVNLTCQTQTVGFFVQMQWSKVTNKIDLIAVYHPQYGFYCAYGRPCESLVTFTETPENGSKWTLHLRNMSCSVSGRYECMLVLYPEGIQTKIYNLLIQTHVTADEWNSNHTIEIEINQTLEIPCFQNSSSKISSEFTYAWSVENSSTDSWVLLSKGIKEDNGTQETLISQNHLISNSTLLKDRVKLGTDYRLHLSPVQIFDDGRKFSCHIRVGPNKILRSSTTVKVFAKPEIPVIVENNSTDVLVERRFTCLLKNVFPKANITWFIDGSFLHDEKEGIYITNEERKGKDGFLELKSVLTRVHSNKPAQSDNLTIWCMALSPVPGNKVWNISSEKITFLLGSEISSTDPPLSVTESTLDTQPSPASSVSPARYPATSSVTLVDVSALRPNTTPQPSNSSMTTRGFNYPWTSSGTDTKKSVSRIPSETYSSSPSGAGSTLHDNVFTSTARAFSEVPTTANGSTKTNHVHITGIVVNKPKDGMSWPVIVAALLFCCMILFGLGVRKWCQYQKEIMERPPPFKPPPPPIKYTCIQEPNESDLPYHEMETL

[8] = biological target: T7, CD226 (Homo sapiens (Human), UniProt Q15762 19-336); experiment: flow cytometry on CD226-transfected Expi293 cells
T7 construct: also called CD226 tfxn
T7 sequence: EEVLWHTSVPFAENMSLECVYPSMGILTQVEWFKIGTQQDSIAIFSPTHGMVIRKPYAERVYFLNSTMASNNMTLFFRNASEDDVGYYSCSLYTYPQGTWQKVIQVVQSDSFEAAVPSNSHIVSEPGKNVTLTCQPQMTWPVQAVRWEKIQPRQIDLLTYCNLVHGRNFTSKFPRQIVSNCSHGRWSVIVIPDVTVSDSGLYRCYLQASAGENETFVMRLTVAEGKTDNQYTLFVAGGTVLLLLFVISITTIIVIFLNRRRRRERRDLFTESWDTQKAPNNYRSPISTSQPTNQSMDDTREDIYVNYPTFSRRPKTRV

[9] = biological target: T8, TIGIT (Homo sapiens (Human), UniProt Q495A1 23-244); experiment: flow cytometry on TIGIT-transfected Expi293 cells
T8 construct: also called TIGIT tfxn
T8 sequence: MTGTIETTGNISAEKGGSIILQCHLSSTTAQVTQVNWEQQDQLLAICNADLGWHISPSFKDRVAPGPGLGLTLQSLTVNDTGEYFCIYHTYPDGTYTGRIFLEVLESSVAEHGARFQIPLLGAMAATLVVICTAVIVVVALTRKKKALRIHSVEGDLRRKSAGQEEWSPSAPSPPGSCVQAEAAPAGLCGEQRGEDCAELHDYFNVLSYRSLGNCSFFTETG

[10] = biological target: T6, CD96; experiment: flow cytometry on CD96-expressing cells; reference itself
[11] = biological target: T7, CD226; experiment: flow cytometry on CD226-transfected Expi293 cells; reference itself
[12] = biological target: T8, TIGIT; experiment: flow cytometry on TIGIT-transfected Expi293 cells; reference itself
[13] = biological target: T9, TIGIT (UniProt Q495A1 22-244); experiment: flow cytometry on cells expressing TIGIT, Fc fusion at 100 nM
T9 construct: whole, on cells
T9 sequence (looked up): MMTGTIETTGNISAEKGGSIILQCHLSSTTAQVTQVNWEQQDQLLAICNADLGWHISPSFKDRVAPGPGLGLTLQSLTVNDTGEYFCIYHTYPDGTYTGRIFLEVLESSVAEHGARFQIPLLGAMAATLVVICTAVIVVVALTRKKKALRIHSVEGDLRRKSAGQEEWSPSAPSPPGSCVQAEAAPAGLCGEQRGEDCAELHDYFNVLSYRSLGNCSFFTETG

[14] = biological target: T9, TIGIT; experiment: flow cytometry, MFI ratio to wildtype CD155 ECD-Fc, TIGIT cells
[15] = biological target: T10, TIGIT (UniProt Q495A1 22-244); experiment: flow cytometry, Fc fusion at 25 nM on cells expressing TIGIT
T10 construct: whole, on cells; Expressed on transfected cells
T10 sequence (looked up): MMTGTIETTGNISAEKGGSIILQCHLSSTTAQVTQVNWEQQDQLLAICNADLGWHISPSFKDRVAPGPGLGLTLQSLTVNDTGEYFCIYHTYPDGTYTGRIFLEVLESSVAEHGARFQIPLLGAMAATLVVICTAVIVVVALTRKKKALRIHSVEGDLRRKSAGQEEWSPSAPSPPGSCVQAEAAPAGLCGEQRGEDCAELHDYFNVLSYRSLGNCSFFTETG

T1 sequence (P16410 36-223): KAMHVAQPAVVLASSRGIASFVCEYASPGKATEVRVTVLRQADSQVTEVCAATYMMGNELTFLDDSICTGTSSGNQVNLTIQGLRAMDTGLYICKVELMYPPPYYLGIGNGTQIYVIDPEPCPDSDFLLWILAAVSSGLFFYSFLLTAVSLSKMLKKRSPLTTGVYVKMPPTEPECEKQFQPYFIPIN

Fold change to WT CD80 [1]: 1.44 fold
Fold change to WT CD80 [2]: 3.05 fold
Fold change to WT CD80 [3]: 0.35 fold
Ratio of PDL1:CD28 [4]: 6 ratio
B1: variant CD80 IgV-Fc E35D/M47V/A71G (Fc fusion, not shown: a dimerising Fc or GST)
chain: VIHVTKEVKEVATLSCGHNVSVEELAQTRIYWQKDKKMVLTMMSGDVNIWPEYKNRTIFDITNNLSIVILGLRPSDEGTYECVVLKYEKDAFKREHLAEVTLSVKAD

MFI at 22.2 nM [5]: 1580 MFI
B2: variant CD80 IgV-Fc E35G/K54E/A71D/L72P (Fc fusion)
chain: VIHVTKEVKEVATLSCGHNVSVEELAQTRIYWQKGKKMVLTMMSGDMNIWPEYENRTIFDITNNLSIVILDPRPSDEGTYECVVLKYEKDAFKREHLAEVTLSVKAD
notes: not shown: which one is

MFI at 66.6 nM [6]: 3070 MFI
B3: WT CD80 ECD-Fc (inert) (Fc fusion, not shown: a dimerising Fc or GST)
chain: VIHVTKEVKEVATLSCGHNVSVEELAQTRIYWQKEKKMVLTMMSGDMNIWPEYKNRTIFDITNNLSIVILALRPSDEGTYECVVLKYEKDAFKREHLAEVTLSVKADFPTPSISDFEIPTSNIRRIICSTSGGFPEPHLSWLENGEELNAINTTVSQDPETELYAVSSKLDFNMTTNHSFMCLIKYGHLRVNQTFNWNTTKQEHFPDN
notes: also called wild-type CD80-ECD-Fc (inert)

MFI [7]: 3080 MFI
MFI [8]: 3720 MFI
MFI [9]: 2720 MFI
MFI parental ratio [10]: 1 fold
MFI parental ratio [11]: 1 fold
MFI parental ratio [12]: 1 fold
B4: wild-type CD155 IgV-Fc (Fc fusion, not shown: a dimerising Fc or GST)
chain: WPPPGTGDVVVQAPTQVPGFLGDSVTLPCYLQVPNMEVTHVSQLTWARHGESGSMAVFHQTQGPSYSESKRLEFVAARLGAELRNASLRMFGLRVEDEGNYTCLFVTFPQGSRSVDIWLRVL

MFI at 100 nM [13]: 4690 MFI
Fold ↑ to WT ECD [14]: 0.01 fold
B5: CD155 IgV Fc (Fc fusion, not shown: a dimerising Fc or GST)
chain: WPPPGTGDVVVQAPTQVPGFLGDSVTLPCYLQVPNMEVTHVSQLTWARHGESGSMAVFHQTQGPSYSESKRLEFVAARLGAELRNASLRMFGLRVEDEGNYTCLFVTFPQGSRSVDIWLRVL

MFI at 25 nM [15]: 3000 MFI
B6: variant CD155 IgV-Fc V9L/V11M/P18S/N35S/S54G/Q62K/L79P/L104M/T107M/V115M (Fc fusion, not shown: a dimerising Fc or GST)
chain: WPPPGTGDLVMQAPTQVSGFLGDSVTLPCYLQVPSMEVTHVSQLTWARHGESGGMAVFHQTKGPSYSESKRLEFVAARPGAELRNASLRMFGLRVEDEGNYTCMFVMFPQGSRSMDIWLRVL
notes: also called V9L/V11M/P18S/N355/S54G/Q62K/L79P/L104M/T107M/V115M
